Laboratory results published in the RNAGym collection of RNA variant scans (doi:10.7554/elife.80360).

B1: CPEB3 Ribozyme (parent)
chain: GGGGGCCACAGCAGAAGCGUUCACGUCGCGGCCCCUGUCAGAUUCUGGUGAAUCUGCGAAUUCUGCUGU

Variants of: B1
Assay: self-cleavage, relative activity (ratio to wild type); higher = more cleavage; co-transcriptional

Variant	self-cleavage
C33G U43G	0.377
C34A C45U	0.798
C33U A51U	0.963
C33U A51G	0.922
C33U A51C	0.948
C33G C63U	0.632
C33G C63G	0.384
C33A C45U	0.799
C32U U62G	0.864
C32U U69G	1.03
C32U U69C	1.06
C34A U62G	0.434
C34A U62A	0.602
C34A U62C	0.358
C34G U43C	0.547
C34G U43G	0.383
C33U U38G	0.215
C33U U38C	0.899
C33A A51G	0.7
C33A A51U	0.46
C33A A51C	0.366

Variant	self-cleavage
C34G	0.74
C34A	0.869
C33U U46G	0.979
C33U U46A	0.98
C33U U46C	0.977
C34A U49C	0.79
C34A U49A	0.867
C33A G65C	0.529
C34A U44C	0.724
C34A U44G	0.526
C34A U61A	0.466
C34A U61C	0.432
C33U A52C	0.978
C33A U64C	0.798
C33A U64G	0.672
C33A U64A	0.847
C34A U69G	0.947
C34A U69A	0.971
C33A U67A	0.977
C33A U67G	1.01
C34A U46G	0.843

Variant	self-cleavage
C33U U61G	0.82
C33U U61A	0.905
C33U U61C	0.913
C33G C35G	0.318
C33G C35A	0.304
C34G G41C	0.296
C34G G41U	0.33
C34G G41A	0.318
C33G A42U	0.556
C34G A40U	0.417
C34G A40G	0.631
C34G A40C	0.326
C34G C54G	0.343
C34G C54A	0.368
C34G C54U	0.708
C33G A52C	0.461
C33G A52G	0.663
C33A C54U	0.723
C33A C54G	0.301
C33A C54A	0.326
C34A U64C	0.728

Variant	self-cleavage
C34A U64A	0.794
C34A C57G	0.285
C34A C57A	0.255
C34A C57U	0.285
C33A U61A	0.599
C33A U61C	0.45
C33U U43G	0.678
C33U U43A	0.915
C33G U61G	0.193
C33G U61A	0.317
C33G U61C	0.341
C33A U69G	0.988
C33A U69C	1.04
C34G C35U	0.29
C34G C35G	0.244
C34G C35A	0.196
C33G G37A	0.299
C33G G37U	0.245
C34A G48C	0.857
C34A G48U	0.877
C33G A59C	0.326
